Data taken from publication PMC10980823, “Structural basis of Acinetobacter type IV pili targeting by an RNA virus” (Nature Communications, 2024).
Several values for one entry are separate records, joined by “and”; a condition that tells them apart may be missing. Equal entries are not always repeated.

B1: AP205 mature virion (complex)
chain 1: MNMYKWVPESIRDSGEGQPSYSNNGDYAPSGPWVAAGIHTMPQSLRDSMRNSIMVTAQARRDVIGPEWGPDGRFTGYASVIGTPDPKPADIVNKFTVERRPVSNGNFQQRVKAGDIVVAPYTSDGKITVKLVAGQKDISSTPDYDYRIDSSLASSAGFVVAGERWYYTKRHFIIPRYFQNWRMRRRKYVTGWVMPTFYSPKEIFNRLKDSLVPDTGLVTQVWADNNTKRMDFLTAMAEIPQTLSSFLDALGYLGSLIKDFKRRRFFLNKAHQRIRNKLGVSFAERRSQIVSKYDRKIASARKPAIIVKLRQRKEKALKALDKMRVREEKKMIREFATQAASLWLSFRYEIMPLYYQSQDVLDVIANSTSEFMTSRDFVAKAINIGIPLEWNLDQENLVSQPRHNVMVKSKLSPENNIGKTLSVNPFTTAWELLTLSFVVDWFVNFGDVIAGFTGGYSDDSGATASWRFDDKKVFHLKNIPSAMVIVDINFYTRQVIDPRLCGGLAFSPKLNLFRYLDAMSLSWNRSRLKISRAT
chain 2: ANKPMQPITSTANKIVWSDPTRLSTTFSASLLRQRVKVGIAELNNVSGQYVSVYKRPAPKPEGCADACVIMPNENQSIRTVISGSAENLATLKAEWETHKRNVDTLFASGNAGLGFLDPTAAIVSSDTT
B2: AP205 maturation protein (Mat) (natural protein, Acinetobacter phage AP205)
chain: B1 chain 1
notes: maturation protein (Mat) of Acinetobacter phage AP205, 534 amino acids as printed; native protein in the virion, where two copies (inner and outer Mat) form a dimer; Native virion protein; models of both copies are in PDB 8TOC; also called inner Mat; outer Mat; source: in AP205 virions grown on A. gp16, purified (CsCl gradient)
B3: AP205 coat protein (Coat) (natural protein)
chain: B1 chain 2
notes: coat protein (Coat) of Acinetobacter phage AP205; native protein of the capsid shell; also forms T=3 and T=4 icosahedral particles; also called Coat-dimer; Coat shell; source: in AP205 virions and VLPs grown on A. gp16, purified (CsCl gradient)

Tests used:
[1] = molecular target: Acinetobacter genomosp. 16 type IV pilus (T4P) mature pilin (Acinetobacter genomosp. 16 (endogenous)); assay: cryo-EM structure; purified AP205 and purified T4P mixed at 1:1 volume ratio at 30 C for 30 min; AP205 with two T4P at 3.6 A, with one T4P at 4.2 A; local maps of inner Mat-T4P at 8.2 A and outer Mat-T4P at 8.6 A
[2] = molecular target: the molecule itself; assay: cryo-EM structure; single-particle cryo-EM of purified apo AP205; asymmetric reconstruction of the mature virion at 3.1 A; icosahedral T=3 (3.2 A) and T=4 (3.4 A) particles from the same data
[3] = molecular target: B2; assay: as above; conditions: both partners purified

Row | Binder | stoichiometry N [1] | stoichiometry N [2] | binding result [3]
1 | B1 | 2 and 1 | – | –
2 | B2 | – | 2 | –
3 | B3 | – | 178 | binds
